{
  "source": "patent US20200268847A1",
  "about": "“Methods of Treating Newly Diagnosed Multiple Myeloma with a Combination of An Antibody that Specifically Binds CD38, Lenalidomide and Dexamethasone” (Janssen Biotech, Inc., priority 2019, published 2020)",
  "key": {"[1]": {"tested_on": "minimal residual disease (clonal multiple myeloma cells in bone marrow)", "experiment": "MAIA: minimal residual disease in bone marrow aspirates by next-generation sequencing (clonoSEQ version 2.0)", "type": "in vivo, human", "details": "threshold 1 tumor cell per 10^5 white cells", "from_the_text": "MRD status may be assessed from bone marrow aspirate samples using for example next generation sequencing (NGS) of immunoglobulin heavy and light chains. The updated, analytically validated version of the clonoSEQ® Assay (Version 2) by Adaptive Biotechnologies may be used for the detection, quantification and analysis of MRD.\nA central laboratory performed disease evaluations (serum and 24-hour urine samples) every 28 days for 2 years, and then every 8 weeks until disease progression. For patients with positive serum immunofixation and daratumumab (DARZALEX®) interference, complete responses were confirmed using reflex assays (McCudden et al., Clin Chem Lab Med 54:1095-1104, 2016). Minimal residual disease was evaluated by next-generation sequencing assays (clonoSEQ® version 2.0; Adaptive Biotechnologies) on bone marrow aspirates collected at baseline, at time of suspected complete or stringent complete response (undetectable M-protein on two consecutive serum and urine electrophoresis tests), and at 12, 18, 24, and 30 months post-first dose in patients who achieved a complete response or better."}, "[2]": {"tested_on": "patients with newly diagnosed multiple myeloma ineligible for HDC and ASCT", "details": "in vivo", "excerpt": "Safety will be measured by adverse events, laboratory test results, ECGs, vital sign measurements, physical examination findings, and assessment of ECOG performance status score.\nSafety analyses included adverse event assessment graded in severity according to NCI-CTCAE version 4, electrocardiograms, clinical laboratory testing, physical examinations, and vital signs.\nThe safety population included patients who received any dose of trial treatment."}, "[3]": {"tested_on": "transplant-ineligible NDMM patients", "experiment": "MAIA subgroup analysis by age (<75 vs >75 y): safety (TEAEs, discontinuations)", "type": "in vivo, human", "method": "To examine the impact of age on the efficacy and safety of D-Rd vs Rd in this patient population, a subgroup analysis was conducted within patients <75 and >75 y of age.\nTransplant-ineligible NDMM patients were randomized 1:1 to Rd±DARA; stratification was based on age (<75 vs >75 years), ISS (I, II, III), and region (North America vs Other). In standard Rd dosing, patients received 28-day cycles of lenalidomide 25 mg PO QD on Days 1-21 and dexamethasone 40 mg PO on Days 1, 8, 15 and 22 until progression. A portion of patients received 10 mg lenalidomide and 20 mg dexamethasone at the beginning of the treatment. In the DRd arm, patients received daratumumab (DARZALEX®) 16 mg/kg IV QW for Cycles 1-2, Q2W for Cycles 3-6, and Q4W thereafter until progression. PFS was the primary endpoint."}, "[4]": {"details": "grade 3/4 TEAEs, <75 y patients"}, "[5]": {"details": "grade 3/4 TEAEs, >75 y patients"}},
  "data": [
    {"substance": "daratumumab (DARZALEX®) group: daratumumab (DARZALEX®) in combination with lenalidomide and dexamethasone", "values": [
      {"measurement": "Negative status for minimal residual disease", "setting": "[1]; ITT population", "value": "89 (24.2) no. (%)"},
      {"measurement": "negative status for minimal residual disease, times as high as in the control group", "setting": "[1]", "value": "more than 3 times"},
      {"measurement": "patients minimal residual disease-negative", "setting": "[1]; ITT, P<0.0001", "value": 24.2, "unit": "%"},
      {"measurement": "discontinuation of trial treatment due to infections", "setting": "[2]", "value": 0.5, "unit": "%"},
      {"measurement": "rate of any-grade infections", "setting": "[2]", "value": 86.3, "unit": "%"},
      {"measurement": "rate of grade 3 or 4 infections", "setting": "[2]", "value": 32.1, "unit": "%"},
      {"measurement": "discontinuation rate due to infections", "setting": "[3]; <75 y", "value": 1, "unit": "%"},
      {"measurement": "discontinued lenalidomide due to TEAEs", "setting": "[3]; <75 y", "value": 15, "unit": "%"},
      {"measurement": "discontinued treatment due to TEAEs", "setting": "[3]; <75 y", "value": 5, "unit": "%"},
      {"measurement": "discontinuation rate due to infections", "setting": "[3]; >75 y", "value": 0, "unit": "%"},
      {"measurement": "discontinued lenalidomide due to TEAEs", "setting": "[3]; >75 y", "value": 29, "unit": "%"},
      {"measurement": "discontinued treatment due to TEAEs", "setting": "[3]; >75 y", "value": 10, "unit": "%"},
      {"measurement": "anemia", "setting": "[3]; [4]", "value": 9, "unit": "%"},
      {"measurement": "leukopenia", "setting": "[3]; [4]", "value": 10, "unit": "%"},
      {"measurement": "lymphopenia", "setting": "[3]; [4]", "value": 12, "unit": "%"},
      {"measurement": "neutropenia", "setting": "[3]; [4]", "value": 43, "unit": "%"},
      {"measurement": "pneumonia", "setting": "[3]; [4]", "value": 13, "unit": "%"},
      {"measurement": "anemia", "setting": "[3]; [5]", "value": 16, "unit": "%"},
      {"measurement": "leukopenia", "setting": "[3]; [5]", "value": 12, "unit": "%"},
      {"measurement": "lymphopenia", "setting": "[3]; [5]", "value": 19, "unit": "%"},
      {"measurement": "neutropenia", "setting": "[3]; [5]", "value": 60, "unit": "%"},
      {"measurement": "pneumonia", "setting": "[3]; [5]", "value": 15, "unit": "%"},
      {"measurement": "thrombocytopenia", "setting": "[3]; [5]", "value": 8, "unit": "%"}
    ]}
  ]
}
